The test system of this data set is S9.6 anti-DNA:RNA hybrid monoclonal antibody, gold conjugate. Put plainly: immuno electron microscopy. The settings on record: 10 ug/mL S9.6-gold, psoralen cross-linked, co-transcriptional R-loop (RNA hybrid), S9.6-gold 10 ug/mL with 80-100 ng pFC53, 1 h at 37 C, then 0.2% glutaraldehyde 15 min at 37 C, labeling buffer, salt and pH not given.

Regarding “pFC53 circular, T3-transcribed, R-loop in mAirn”, the binding signal (% of molecules labeled) amounted to 50.

In the case of “pFC53 linear, T3-transcribed, R-loop in mAirn”, where the note is “labels cluster in Airn region”, the binding signal (% of molecules labeled) came out at 50.
